According to patent publication EP2292266A1:

Experiments:
ErbB2 (human) [1] = molecular target: ErbB2 (human) (UniProt P04626); assay: FRET acceptor photobleaching in fixed, HRG-treated SKBr3 cells (Alexa488 donor on Copine-III, Cy3 acceptor on ErbB2)
[2] = molecular target: pTyr1248-containing peptide of ErbB2 (desthiobiotin-…-NH2, Tyr-phosphorylated form) (human); assay: SILAC peptide affinity pull-down from T47D lysates, MRM mass spectrometry; reference is the non-phosphorylated Tyr1248 peptide
ErbB2 (human) [3] = molecular target: ErbB2 (human) (UniProt P04626); assay: FRET acceptor photobleaching

Sequence of Copine III (O75131 whole entry): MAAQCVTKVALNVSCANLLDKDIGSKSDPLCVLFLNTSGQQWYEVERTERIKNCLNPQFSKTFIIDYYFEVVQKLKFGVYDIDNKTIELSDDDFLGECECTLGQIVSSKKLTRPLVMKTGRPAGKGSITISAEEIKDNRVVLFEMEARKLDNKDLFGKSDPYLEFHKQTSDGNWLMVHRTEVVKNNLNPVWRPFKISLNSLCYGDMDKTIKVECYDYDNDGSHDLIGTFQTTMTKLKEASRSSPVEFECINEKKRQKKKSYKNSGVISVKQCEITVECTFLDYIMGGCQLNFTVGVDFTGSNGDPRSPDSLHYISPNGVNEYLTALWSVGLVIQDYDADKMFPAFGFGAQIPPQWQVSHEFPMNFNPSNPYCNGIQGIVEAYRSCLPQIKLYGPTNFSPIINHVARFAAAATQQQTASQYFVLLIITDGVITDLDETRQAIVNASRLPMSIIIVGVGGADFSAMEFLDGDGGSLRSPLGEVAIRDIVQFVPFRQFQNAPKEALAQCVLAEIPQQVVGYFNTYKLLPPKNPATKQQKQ

FRET efficiency (E) (ErbB2 (human) [1]): 8.3
quantification ratio (heavy/light peak area, pTyr peptide over Tyr peptide) [2]: 1.8
FRET efficiency (ErbB2 (human) [3]): 8
Substance: Copine III (from UniProt O75131 1-537)
